From patent US20210147504A1 (Bayer, published 2021)
Values joined by “and” are separate entries in the source; they are usually repeats but may differ in a detail not shown here. Equal values may be shown once. One block for each binder: values may come before it.

Columns and labels:
[1] = target: T1, human NPRA (human, UniProt P16066 33-1061); experiment: cell-based or functional assay
T1 sequence (looked up): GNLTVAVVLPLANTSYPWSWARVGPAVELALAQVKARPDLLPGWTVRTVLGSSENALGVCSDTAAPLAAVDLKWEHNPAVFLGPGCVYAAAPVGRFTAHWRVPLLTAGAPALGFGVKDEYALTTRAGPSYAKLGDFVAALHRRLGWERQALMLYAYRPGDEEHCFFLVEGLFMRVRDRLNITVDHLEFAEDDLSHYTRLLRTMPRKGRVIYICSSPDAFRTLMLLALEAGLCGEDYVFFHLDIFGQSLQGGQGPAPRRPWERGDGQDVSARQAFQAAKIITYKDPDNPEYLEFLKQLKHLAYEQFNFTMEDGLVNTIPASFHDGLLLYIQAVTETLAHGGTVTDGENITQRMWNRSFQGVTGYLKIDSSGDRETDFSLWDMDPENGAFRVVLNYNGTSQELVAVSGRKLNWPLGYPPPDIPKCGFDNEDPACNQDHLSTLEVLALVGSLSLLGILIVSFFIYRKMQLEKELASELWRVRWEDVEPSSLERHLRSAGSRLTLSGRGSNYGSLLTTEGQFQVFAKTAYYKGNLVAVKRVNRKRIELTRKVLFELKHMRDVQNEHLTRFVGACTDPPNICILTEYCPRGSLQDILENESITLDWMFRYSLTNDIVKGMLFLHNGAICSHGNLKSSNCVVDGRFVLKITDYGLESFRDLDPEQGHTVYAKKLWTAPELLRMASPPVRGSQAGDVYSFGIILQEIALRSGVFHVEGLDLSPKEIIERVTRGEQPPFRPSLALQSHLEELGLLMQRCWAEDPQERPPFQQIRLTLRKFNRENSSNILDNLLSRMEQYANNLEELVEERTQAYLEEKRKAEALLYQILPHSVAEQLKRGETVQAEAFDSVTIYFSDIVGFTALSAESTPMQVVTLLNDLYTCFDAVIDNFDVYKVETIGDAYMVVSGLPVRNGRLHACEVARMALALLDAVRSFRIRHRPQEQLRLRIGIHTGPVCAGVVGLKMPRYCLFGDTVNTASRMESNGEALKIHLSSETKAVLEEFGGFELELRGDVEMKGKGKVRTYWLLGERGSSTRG

[2] = target: T2, human NPRA (human, UniProt P16066 33-1061); experiment: cell-based or functional assay; remark: listed apart in the source
T2 sequence (looked up): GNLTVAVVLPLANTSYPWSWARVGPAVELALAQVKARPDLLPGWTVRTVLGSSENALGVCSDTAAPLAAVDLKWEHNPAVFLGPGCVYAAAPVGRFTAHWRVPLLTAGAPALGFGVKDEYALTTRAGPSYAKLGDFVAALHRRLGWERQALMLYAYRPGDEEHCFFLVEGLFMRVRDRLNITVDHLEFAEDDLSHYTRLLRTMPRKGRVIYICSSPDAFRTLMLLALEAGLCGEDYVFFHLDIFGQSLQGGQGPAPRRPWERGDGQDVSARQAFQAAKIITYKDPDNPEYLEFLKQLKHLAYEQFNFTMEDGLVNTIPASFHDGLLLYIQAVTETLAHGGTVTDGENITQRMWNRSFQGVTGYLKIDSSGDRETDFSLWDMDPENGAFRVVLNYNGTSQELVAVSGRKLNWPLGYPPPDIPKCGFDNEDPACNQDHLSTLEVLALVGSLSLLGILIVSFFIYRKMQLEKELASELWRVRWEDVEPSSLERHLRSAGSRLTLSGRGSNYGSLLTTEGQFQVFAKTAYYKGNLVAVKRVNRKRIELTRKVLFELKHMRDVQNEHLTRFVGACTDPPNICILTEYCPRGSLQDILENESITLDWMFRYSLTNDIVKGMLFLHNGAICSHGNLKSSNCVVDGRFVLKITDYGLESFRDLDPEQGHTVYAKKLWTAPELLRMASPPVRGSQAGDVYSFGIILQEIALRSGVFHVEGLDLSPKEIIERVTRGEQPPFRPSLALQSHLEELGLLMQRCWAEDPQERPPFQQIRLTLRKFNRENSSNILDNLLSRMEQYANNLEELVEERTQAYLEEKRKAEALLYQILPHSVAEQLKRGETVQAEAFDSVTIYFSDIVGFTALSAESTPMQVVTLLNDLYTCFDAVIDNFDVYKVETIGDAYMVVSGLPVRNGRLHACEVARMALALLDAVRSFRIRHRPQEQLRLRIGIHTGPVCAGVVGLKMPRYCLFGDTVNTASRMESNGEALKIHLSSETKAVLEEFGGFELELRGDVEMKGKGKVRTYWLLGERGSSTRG

B2: TPP-10361 (antibody, human IgG1, lambda)
heavy: not shown
light: QSVLTQPPSVSGAPGQRVTISCTGSSSNIGAGYDVHWYQQLPGTAPKLLIYGSGSGSGSGSGSPDGGSGGSLRRSSCFGGRMDRIGAQSGLGCNSFRYGSYGSGGSGSGSGNRPSGVPDRFSGSKSGTSASLAITGLQAEDEADYYCQSYDSSLSGVVFGGGTKLTVLGQPKAAPSVTLFPPSSEELQANKATLVCLISDFYPGAVTVAWKADSSPVKAGVETTTPSKQSNNKYAASSYLSLTPEQWKSHRSYSCQVTHEGSTVEKTVAPTECS
- activity rcs [1]: 20%
- average rel logEC50 [1]: -0.1 log vs TPP-5661
- rel. activity rcs [1]: -0.1 log vs TPP-5661
- rel. logEC50 pcs 5 [1]: -0.1 log vs TPP-5661

B3: TPP-10294 (antibody, human IgG1, lambda)
heavy: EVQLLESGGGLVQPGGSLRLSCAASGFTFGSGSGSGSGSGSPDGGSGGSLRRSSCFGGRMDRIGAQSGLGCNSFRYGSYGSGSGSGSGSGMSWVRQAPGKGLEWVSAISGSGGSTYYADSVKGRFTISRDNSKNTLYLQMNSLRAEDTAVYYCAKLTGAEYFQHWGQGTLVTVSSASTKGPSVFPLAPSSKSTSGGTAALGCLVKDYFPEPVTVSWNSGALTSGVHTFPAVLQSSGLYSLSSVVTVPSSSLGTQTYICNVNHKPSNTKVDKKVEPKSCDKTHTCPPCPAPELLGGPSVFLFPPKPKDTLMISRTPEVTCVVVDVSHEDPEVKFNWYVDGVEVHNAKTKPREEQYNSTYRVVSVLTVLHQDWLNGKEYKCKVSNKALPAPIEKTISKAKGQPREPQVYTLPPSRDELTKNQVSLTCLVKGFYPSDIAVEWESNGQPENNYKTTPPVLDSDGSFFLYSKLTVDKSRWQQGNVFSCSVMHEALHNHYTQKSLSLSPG
light: QSVLTQPPSVSGAPGQRVTISCTGSSSNIGAGYDVHWYQQLPGTAPKLLIYGNSNRPSGVPDRFSGSKSGTSASLAITGLQAEDEADYYCQSYDSSLSGVVFGGGTKLTVLGQPKAAPSVTLFPPSSEELQANKATLVCLISDFYPGAVTVAWKADSSPVKAGVETTTPSKQSNNKYAASSYLSLTPEQWKSHRSYSCQVTHEGSTVEKTVAPTECS
- activity rcs [2]: 41%
- average rel logEC50 [2]: -0.3 log vs TPP-5661
- rel. logEC50* pcs [2]: -0.5 log vs TPP-5661 and -0.6 log vs TPP-5661 and -0.4 log vs TPP-5661
- rel. logEC50 pcs 4 [2]: -0.2 log vs TPP-5661
- rel. logEC50 pcs 7 [2]: 0 log vs TPP-5661

B6: TPP-10847 (antibody, human IgG1, lambda)
heavy: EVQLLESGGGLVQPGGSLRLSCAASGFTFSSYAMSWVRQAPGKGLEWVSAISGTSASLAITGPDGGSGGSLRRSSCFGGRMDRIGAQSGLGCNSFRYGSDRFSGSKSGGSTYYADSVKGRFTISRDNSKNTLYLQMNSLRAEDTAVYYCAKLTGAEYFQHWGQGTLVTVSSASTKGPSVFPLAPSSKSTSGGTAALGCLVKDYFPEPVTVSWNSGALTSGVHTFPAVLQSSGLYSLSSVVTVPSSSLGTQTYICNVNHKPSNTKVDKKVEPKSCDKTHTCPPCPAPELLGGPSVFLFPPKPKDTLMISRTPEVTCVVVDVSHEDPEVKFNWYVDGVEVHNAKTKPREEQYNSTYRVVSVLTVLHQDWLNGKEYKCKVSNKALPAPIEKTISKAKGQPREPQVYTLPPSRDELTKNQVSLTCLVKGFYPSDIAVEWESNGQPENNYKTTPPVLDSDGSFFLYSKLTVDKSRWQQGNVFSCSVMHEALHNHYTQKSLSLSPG
light: QSVLTQPPSVSGAPGQRVTISCTGSSSNIGAGYDVHWYQQLPGTAPKLLIYGNSNRPSGVPDRFSGSKSGTSASLAITGLQAEDEADYYCQSYDSSLSGVVFGGGTKLTVLGQPKAAPSVTLFPPSSEELQANKATLVCLISDFYPGAVTVAWKADSSPVKAGVETTTPSKQSNNKYAASSYLSLTPEQWKSHRSYSCQVTHEGSTVEKTVAPTECS
- average rel logEC50 [2]: -0.5 log vs TPP-5661
- rel. logEC50 pcs 5 [2]: 0 log vs TPP-5661
- rel. logEC50 pcs 6 [2]: -0.9 log vs TPP-5661

Second part, the binder after the results:

- activity rcs [1]: 94%
- average rel logEC50 [1]: -0.2 log vs TPP-5661
- rel. activity rcs [1]: 0.1 log vs TPP-5661
- rel. logEC50 pcs 2 [1]: -0.6 log vs TPP-5661
- rel. logEC50 pcs 3 [1]: 0.2 log vs TPP-5661
- rel. logEC50 pcs 4 [1]: -0.3 log vs TPP-5661
B1: TPP-10355 (antibody, human IgG1, lambda)
heavy: not shown
light: QSVLTQPPSVSGAPGQRVTISCTGSSSNIGAGYDVHWYQQLPGTAPKLLIYGNSNRPSGVPDRFSGSKSGTSASLAITGLQAEDEADYYCAAWNPNPNPNPNPNGGSGGSLRRSSCFGGRMDRIGAQSGLGCNSFRYGSNPNPNPNPNPNVFGSGTKVTVLGQPKAAPSVTLFPPSSEELQANKATLVCLISDFYPGAVTVAWKADSSPVKAGVETTTPSKQSNNKYAASSYLSLTPEQWKSHRSYSCQVTHEGSTVEKTVAPTECS

- activity rcs [1]: 84%
- average rel logEC50 [1]: -0.5 log vs TPP-5661
- rel. logEC50 pcs 2 [1]: -0.8 log vs TPP-5661
- rel. logEC50 pcs 3 [1]: -0.1 log vs TPP-5661
B4: TPP-10290 (antibody)
heavy: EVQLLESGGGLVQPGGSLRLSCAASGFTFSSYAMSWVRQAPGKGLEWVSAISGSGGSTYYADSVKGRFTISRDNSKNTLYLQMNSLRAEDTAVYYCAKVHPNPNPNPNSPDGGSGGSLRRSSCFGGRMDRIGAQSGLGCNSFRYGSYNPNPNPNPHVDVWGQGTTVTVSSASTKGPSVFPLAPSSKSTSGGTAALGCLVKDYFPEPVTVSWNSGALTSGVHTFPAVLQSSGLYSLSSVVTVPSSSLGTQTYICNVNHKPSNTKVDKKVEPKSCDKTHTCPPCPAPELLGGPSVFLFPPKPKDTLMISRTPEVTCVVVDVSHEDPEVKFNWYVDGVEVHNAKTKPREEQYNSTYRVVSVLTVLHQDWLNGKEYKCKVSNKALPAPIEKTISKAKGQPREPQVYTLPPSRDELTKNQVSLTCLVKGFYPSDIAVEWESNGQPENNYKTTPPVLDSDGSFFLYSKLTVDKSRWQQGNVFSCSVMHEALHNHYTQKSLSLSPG
light: QSVLTQPPSVSGAPGQRVTISCTGSSSNIGAGYDVHWYQQLPGTAPKLLIYGNSNRPSGVPDRFSGSKSGTSASLAITGLQAEDEADYYCQSYDSSLSGVVFGGGTKLTVLGQPKAAPSVTLFPPSSEELQANKATLVCLISDFYPGAVTVAWKADSSPVKAGVETTTPSKQSNNKYAASSYLSLTPEQWKSHRSYSCQVTHEGSTVEKTVAPTECS

- activity rcs [2]: 67%
- average rel logEC50 [2]: -0.6 log vs TPP-5661
- rel. logEC50 pcs 5 [2]: -0.4 log vs TPP-5661
- rel. logEC50 pcs 6 [2]: -0.8 log vs TPP-5661
B5: TPP-10845 (antibody, human IgG1, lambda)
heavy: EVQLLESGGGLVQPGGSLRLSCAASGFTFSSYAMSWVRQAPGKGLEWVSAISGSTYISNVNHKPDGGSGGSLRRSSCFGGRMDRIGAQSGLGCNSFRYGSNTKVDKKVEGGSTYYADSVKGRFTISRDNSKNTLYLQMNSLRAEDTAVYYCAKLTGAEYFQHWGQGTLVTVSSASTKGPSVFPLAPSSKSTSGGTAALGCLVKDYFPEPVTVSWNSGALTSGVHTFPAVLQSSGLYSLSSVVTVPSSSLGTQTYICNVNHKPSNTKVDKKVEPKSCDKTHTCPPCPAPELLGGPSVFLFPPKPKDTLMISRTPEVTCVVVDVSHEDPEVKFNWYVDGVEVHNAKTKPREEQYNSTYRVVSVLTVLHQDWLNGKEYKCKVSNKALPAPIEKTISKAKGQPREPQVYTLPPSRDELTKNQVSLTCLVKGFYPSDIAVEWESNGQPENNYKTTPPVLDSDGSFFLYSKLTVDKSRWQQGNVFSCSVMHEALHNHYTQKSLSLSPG
light: QSVLTQPPSVSGAPGQRVTISCTGSSSNIGAGYDVHWYQQLPGTAPKLLIYGNSNRPSGVPDRFSGSKSGTSASLAITGLQAEDEADYYCQSYDSSLSGVVFGGGTKLTVLGQPKAAPSVTLFPPSSEELQANKATLVCLISDFYPGAVTVAWKADSSPVKAGVETTTPSKQSNNKYAASSYLSLTPEQWKSHRSYSCQVTHEGSTVEKTVAPTECS

- average rel logEC50 [2]: -0.7 log vs TPP-5661
- rel. logEC50* pcs [2]: -0.6 log vs TPP-5661 and -0.8 log vs TPP-5661
B7: TPP-13061 (antibody, human IgG1, lambda)
heavy: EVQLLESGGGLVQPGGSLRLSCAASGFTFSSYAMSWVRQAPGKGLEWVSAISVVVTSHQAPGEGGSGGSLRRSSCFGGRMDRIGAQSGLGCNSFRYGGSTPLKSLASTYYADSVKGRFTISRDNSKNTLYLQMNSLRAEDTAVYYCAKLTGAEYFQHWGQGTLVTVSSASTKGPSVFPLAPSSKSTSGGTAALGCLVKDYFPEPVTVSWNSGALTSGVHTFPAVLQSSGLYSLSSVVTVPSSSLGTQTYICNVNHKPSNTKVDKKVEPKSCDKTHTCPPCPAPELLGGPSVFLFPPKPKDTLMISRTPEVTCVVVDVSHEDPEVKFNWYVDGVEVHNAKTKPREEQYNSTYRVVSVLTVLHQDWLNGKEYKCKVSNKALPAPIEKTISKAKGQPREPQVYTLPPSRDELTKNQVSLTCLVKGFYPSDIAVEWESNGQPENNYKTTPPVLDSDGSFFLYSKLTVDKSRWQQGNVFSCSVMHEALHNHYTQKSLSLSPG
light: QSVLTQPPSVSGAPGQRVTISCTGSSSNIGAGYDVHWYQQLPGTAPKLLIYGNSNRPSGVPDRFSGSKSGTSASLAITGLQAEDEADYYCQSYDSSLSGVVFGGGTKLTVLGQPKAAPSVTLFPPSSEELQANKATLVCLISDFYPGAVTVAWKADSSPVKAGVETTTPSKQSNNKYAASSYLSLTPEQWKSHRSYSCQVTHEGSTVEKTVAPTECS
